Test results from US20240325555A1.

Assays:
[1] = biological target: T1, rat LIV-1 (rat) (UniProt Q4V887); test: FACS, HEK293/Rat_LIV-1 cells
T1 sequence (looked up): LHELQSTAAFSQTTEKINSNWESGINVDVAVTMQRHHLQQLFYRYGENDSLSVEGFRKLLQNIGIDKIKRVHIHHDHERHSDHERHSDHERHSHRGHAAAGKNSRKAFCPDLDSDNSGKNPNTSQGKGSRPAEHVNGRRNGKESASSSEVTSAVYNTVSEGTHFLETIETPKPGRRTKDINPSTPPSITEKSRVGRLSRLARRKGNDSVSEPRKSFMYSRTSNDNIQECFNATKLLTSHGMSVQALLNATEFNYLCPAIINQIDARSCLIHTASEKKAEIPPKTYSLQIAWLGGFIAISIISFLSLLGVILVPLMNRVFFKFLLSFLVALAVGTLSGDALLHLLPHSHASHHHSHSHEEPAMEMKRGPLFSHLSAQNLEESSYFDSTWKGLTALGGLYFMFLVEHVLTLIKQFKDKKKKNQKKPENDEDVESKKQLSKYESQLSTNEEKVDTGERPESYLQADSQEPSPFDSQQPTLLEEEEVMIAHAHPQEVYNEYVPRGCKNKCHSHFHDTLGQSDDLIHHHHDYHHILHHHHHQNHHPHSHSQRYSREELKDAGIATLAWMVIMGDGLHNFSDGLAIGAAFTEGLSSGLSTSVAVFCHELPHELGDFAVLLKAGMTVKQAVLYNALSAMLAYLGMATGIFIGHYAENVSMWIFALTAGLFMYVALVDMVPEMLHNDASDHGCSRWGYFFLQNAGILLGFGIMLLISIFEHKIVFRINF

[2] = biological target: T2, mouse LIV-1 (mouse) (UniProt Q8C145); test: FACS, HEK293/Mouse_LIV-1 cells
T2 sequence (looked up): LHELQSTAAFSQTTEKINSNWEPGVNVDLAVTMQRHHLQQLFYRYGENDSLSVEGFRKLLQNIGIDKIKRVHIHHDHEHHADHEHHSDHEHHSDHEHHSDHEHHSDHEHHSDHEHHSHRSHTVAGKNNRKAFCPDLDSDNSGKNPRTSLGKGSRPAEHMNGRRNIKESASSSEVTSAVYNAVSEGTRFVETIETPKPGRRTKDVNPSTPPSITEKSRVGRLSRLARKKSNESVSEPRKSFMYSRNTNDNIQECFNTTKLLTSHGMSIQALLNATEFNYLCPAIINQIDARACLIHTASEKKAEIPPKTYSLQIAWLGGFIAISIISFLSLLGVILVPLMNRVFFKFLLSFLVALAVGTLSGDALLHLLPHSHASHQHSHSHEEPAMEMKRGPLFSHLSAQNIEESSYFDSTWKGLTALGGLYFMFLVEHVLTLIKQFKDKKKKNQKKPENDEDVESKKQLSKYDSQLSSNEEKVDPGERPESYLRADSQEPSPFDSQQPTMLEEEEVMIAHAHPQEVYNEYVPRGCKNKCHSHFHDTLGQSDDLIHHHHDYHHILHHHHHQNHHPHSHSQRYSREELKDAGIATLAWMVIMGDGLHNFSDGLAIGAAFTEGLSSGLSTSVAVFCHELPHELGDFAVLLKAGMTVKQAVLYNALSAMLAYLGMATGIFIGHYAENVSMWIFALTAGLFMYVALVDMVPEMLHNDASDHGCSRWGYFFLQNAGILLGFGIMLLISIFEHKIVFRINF

B1: 5D6B10 (antibody, V domains shown)
VH: QVQLKQSGPGLVQPSQSLSITCTVSGFSLTTYGIHWVRQSPGKGLEWLGVIWTGGTTDYNAAFISRLSISKDNSKSQVFFKMNSLQANDTAIYYCARGPSSYWGQGTLVTVSA
VL: DIVMTQSQKFMSTSVGDRVSVTCKASQNVDTNVVWYQQKPGQSPKALIHSASYRYSGVPDRFTGSGSGTDFTLTISNVQSEDLAEYFCQQYNNYPWTFGGGTKLEIK
Top (MFI) [1]: 150 MFI
Top (MFI) [2]: 121 MFI
